Results: patent CN113583127A (MABWELL SHANGHAI BIOTECHNOLOGY CO LTD, dated 2021)
Each block holds one binder with its values, some of them ahead of it.

Columns and labels:
[1] = molecular target: mFc-NKG2A-CD94重组蛋白 (human) (UniProt P26715); test: BLI (Octet QKe), antibody captured on AHC probe, mFc-NKG2A-CD94 as analyte, 1:1 fit
[2] = molecular target: T1, 人NKG2A/CD94 (Flp-in CHO稳定表达细胞株表面) (human, UniProt P26715 1-233; Q13241 1-179); test: flow cytometry, Fab titrated on CHO cells expressing human NKG2A/CD94; column head KD[nM], title and text call it EC50
T1 construct: whole, on cells; also called 细胞表面人NKG2A/CD94; huNKGA/huCD94
T1 sequence (P26715 whole entry, chain 1 of 2): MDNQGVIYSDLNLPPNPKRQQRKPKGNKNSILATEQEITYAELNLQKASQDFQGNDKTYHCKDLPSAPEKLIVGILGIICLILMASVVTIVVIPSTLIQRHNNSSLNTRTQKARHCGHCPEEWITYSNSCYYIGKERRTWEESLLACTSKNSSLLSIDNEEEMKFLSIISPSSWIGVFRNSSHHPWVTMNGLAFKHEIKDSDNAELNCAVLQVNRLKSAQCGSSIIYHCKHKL
T1 sequence (Q13241 whole entry, chain 2 of 2): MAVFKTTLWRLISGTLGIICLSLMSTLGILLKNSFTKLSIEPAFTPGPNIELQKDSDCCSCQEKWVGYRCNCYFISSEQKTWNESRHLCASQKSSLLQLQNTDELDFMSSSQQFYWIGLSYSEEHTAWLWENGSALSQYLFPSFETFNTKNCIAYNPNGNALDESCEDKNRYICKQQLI

PD-L1-ECD-mFc = PD-L1-ECD-mFc (UniProt Q9NZQ7); test: competition ELISA: PD-1-hFc coated, 3 nM PD-L1-ECD-mFc with titrated antibody, detection with HRP anti-mouse Fc
Sequence of UniProt Q9NZQ7 (Q9NZQ7 19-239): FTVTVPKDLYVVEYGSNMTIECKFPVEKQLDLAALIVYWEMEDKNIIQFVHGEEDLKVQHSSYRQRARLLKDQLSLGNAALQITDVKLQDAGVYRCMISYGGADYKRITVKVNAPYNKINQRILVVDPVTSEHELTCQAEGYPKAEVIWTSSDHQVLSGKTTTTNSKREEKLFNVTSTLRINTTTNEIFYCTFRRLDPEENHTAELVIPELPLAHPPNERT

B2: AM00 Fab (Fab, V domains shown)
VH: EVQLVQSGAEVKKPGASVKVSCKASGYTFTSYWMNWVRQAPGQGLEWMGRIDPYDSETHYAQKLQGRVTMTTDTSTSTAYMELRSLRSDDTAVYYCARGGYDFDVGTLYWFFDVWGQGTTVTVSS
VL: DIQMTQSPSSLSASVGDRVTITCRASENIYSYLAWYQQKPGKAPKLLIYNAKTLAEGVPSRFSGSGSGTDFTLTISSLQPEDFATYYCQHHYGTPRTFGGGTKVEIK
notes: also called 亲本抗体AM00; 模板抗体Fab
Kd [2]: 189 nM

B3: AM10 Fab (Fab, V domains shown)
VH: EVQLVQSGAEVKKPGASVKVSCKASSYDFSWYWINWVRQAPGQGLEWMGRIDPYDSETHYAQKLQGRVTMTTDTSTSTAYMELRSLRSDDTAVYYCARGGYDFDVGTLYWFFDVWGQGTTVTVSS
VL: DIQMTQSPSSLSASVGDRVTITCRASENIYSYLAWYQQKPGKAPKLLIYNAKTLAEGVPSRFSGSGSGTDFTLTISSLQPEDFATYYCQHHYGTPRTFGGGTKVEIK
Kd [2]: 1.43 nM

Other lines, results leading:

Kd [1]: 0.408 nM | koff [1]: 0.000196 s⁻¹ | kon [1]: 481000 M⁻¹ s⁻¹
B1: hum270重组抗体 (antibody, V domains shown)
VH: EVQLVQSGAEVKKPGASVKVSCKASGYTFTSYWMNWVRQAPGQGLEWMGRIDPYDSETHYAQKLQGRVTMTTDTSTSTAYMELRSLRSDDTAVYYCARGGYDFDVGTLYWFFDVWGQGTTVTVSS
VL: DIQMTQSPSSLSASVGDRVTITCRASENIYSYLAWYQQKPGKAPKLLIYNAKTLAEGVPSRFSGSGSGTDFTLTISSLQPEDFATYYCQHHYGTPRTFGGGTKVEIK

IC50 (PD-L1-ECD-mFc): 2.86 nM
B4: 抗NKG2A和抗PD-L1双特异性抗体hum270-F2 (bispecific antibody, part only; not given: Anti-PD-L1 nanobody F2, linker, constant regions, IgG4, not shown: a dimerising Fc or GST)
heavy, part: EVQLVQSGAEVKKPGASVKVSCKASGYTFTSYWMNWVRQAPGQGLEWMGRIDPYDSETHYAQKLQGRVTMTTDTSTSTAYMELRSLRSDDTAVYYCARGGYDFDVGTLYWFFDVWGQGTTVTVSS
light, part: DIQMTQSPSSLSASVGDRVTITCRASENIYSYLAWYQQKPGKAPKLLIYNAKTLAEGVPSRFSGSGSGTDFTLTISSLQPEDFATYYCQHHYGTPRTFGGGTKVEIK
